Source: PMC4928909, “Roles of C-Terminal Region of Yeast and Human Rad52 in Rad51-Nucleoprotein Filament Formation and ssDNA Annealing”

Assays:
Test in all cases: EMSA; 3 mM Mg acetate; 30 mM Tris-acetate pH 7.5, 3 mM Mg acetate, 20 mM NaCl, 37 C, 15 min, 100 nM labeled ssDNA; 6% PAGE in TBE
hRAD52NM = molecular target: T1, hRAD52NM (Homo sapiens, UniProt P43351 1-290); settings: protein: recombinant; tags: C-terminal His6; chain copies: 11; label: 5'-32P; single strand
T1 sequence: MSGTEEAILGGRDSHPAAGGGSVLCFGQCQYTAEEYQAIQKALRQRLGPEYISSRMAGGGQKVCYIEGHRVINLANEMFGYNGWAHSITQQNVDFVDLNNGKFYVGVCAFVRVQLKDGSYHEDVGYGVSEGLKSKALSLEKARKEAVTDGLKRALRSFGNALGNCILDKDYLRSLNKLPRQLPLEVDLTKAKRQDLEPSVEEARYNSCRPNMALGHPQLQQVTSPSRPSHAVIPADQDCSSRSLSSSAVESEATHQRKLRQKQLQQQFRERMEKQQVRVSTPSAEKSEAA

yRad52 = yRad52 (Saccharomyces cerevisiae, UniProt P06778 1-471); settings: protein: recombinant; tags: C-terminal His6; chain copies: 10; label: 5'-32P; single strand
hRAD52 = molecular target: T2, hRAD52 (Homo sapiens, UniProt P43351 1-418); settings: protein: recombinant; tags: C-terminal His6; label: 5'-32P; single strand
T2 sequence: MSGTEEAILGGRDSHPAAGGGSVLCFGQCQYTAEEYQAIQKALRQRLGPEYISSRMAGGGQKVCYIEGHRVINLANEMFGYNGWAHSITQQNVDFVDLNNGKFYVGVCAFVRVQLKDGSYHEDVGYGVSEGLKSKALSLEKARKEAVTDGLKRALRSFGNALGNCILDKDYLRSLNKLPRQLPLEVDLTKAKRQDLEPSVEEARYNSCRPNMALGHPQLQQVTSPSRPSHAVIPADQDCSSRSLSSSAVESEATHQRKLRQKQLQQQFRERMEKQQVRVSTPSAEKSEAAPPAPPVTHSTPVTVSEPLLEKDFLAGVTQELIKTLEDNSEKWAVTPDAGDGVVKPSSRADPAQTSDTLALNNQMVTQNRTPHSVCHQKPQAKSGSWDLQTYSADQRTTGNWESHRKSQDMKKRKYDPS

Measured: binding result

Chain of yRad52 (P06778 whole entry): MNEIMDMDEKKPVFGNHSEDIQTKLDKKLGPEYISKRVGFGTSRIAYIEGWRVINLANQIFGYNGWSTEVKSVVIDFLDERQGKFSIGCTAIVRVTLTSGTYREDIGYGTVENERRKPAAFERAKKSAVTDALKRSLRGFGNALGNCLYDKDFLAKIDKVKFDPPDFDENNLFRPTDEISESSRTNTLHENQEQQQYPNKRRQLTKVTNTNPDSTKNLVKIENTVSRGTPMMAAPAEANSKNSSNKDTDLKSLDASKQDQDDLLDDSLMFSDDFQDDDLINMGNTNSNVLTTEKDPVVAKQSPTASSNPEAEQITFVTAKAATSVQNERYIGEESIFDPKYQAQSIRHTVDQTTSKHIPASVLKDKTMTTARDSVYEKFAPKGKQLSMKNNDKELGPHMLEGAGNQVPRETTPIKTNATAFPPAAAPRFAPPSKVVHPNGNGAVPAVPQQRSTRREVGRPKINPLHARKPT

B1: TSO252 (ssDNA)
DNA: TGGTTGAGTACTCACCAGTCACAGAAAAGCATCTTACGGATGGCATGACAGTAAGAGAATTATGCAGTGC
binds: all assays above
